Data published in patent publication US20250147051A1, “METHOD FOR DETECTING A TAU PROTEIN IN A SALIVA SAMPLE” (GTINVENT LIMITED, priority 2022, published 2025).

Tests used:
[1] = test system: tau protein; assay: Capture ELISA of transgenic mouse brain lysates; settings: S1D12 mAb capture, label = detection scAb, WT, L1, L66+/- and L66+/+
Protocol: Mouse brain lysates were prepared from wildtype, Line 1, Line 66+/+ and Line 66+/− (Melis et al., 2015, all surplus from Charles River, part of study R0144). All animals were female, 7-8 months old except Line 66+/+ which were 5 months old. […] The L1 cDNA construct (FIG. 23) contains human tau cDNA coding for amino acid residues 296-390 with a signal sequence and related sequences in a murine Thy-1 expression cassette. For brain lysate preparation, half brains were sectioned into four and the individual sections were homogenised in 400 μl of ice cold RIPA buffer (Cell signalling Technology) containing protease and phosphatase inhibitors. Total protein concentrations for individual samples were established by BCA-assay and each sample was subsequently diluted to 1 mg/ml for future experiments.
For capture ELISA, 100 μL S1D12 capture mAb was used to coat a nunc 96 well Maxisorp plate at 1 μg/ml and incubated for 1 hour at 37° C. Plate was washed as previously and then blocked for 1 hour at 37° C. in 2% MPBS. Brain homogenate samples (50 ng total protein) from each mouse type were added to the first wells and double diluted across the plate in PBS. These samples were left to incubate at RT for 1 hour. Various detection scAbs encompassing epitopes of interest were then added to the plate at 1 μg/ml and incubated for 1 h at RT. Secondary antibody used was anti-HuCk HRP and the assays were developed as described previously. Using S1D12 mAb capture and two separate scAb detectors, S-1G2 (FIG. 24A) and C-B7 (FIG. 24B), it was possible to differentiate between L1 and L66 samples and the wild type.

[2] = test system: tau; assay: Western blot of mouse brain homogenates (WT, L66+/+, L1+/+); settings: 20 μg brain homogenate protein, 5-month-old WT, L1+/+ mice
Protocol: Protein equivalent to 20 μg from each brain extract was separated using 4-20% bis-tris gels and run in 1×MES buffer. […] A clear band is visible in the lanes containing L66^+/+ samples, but no other bands are detectable (WT or L1^+/+). […] Once again, a band having relative mobility of 65 kDa is visible in the L66 sample with no other reactive bands present.
This band most likely corresponds to endogenous mouse tau which is of a similar size. In the L66^+/+ samples, a second band running at approximately 68 kDa is also detected. The presence of numerous other bands indicates proteolytic truncation of tau within brain homogenates.

[3] = test system: tau; assay: Capture ELISA of transgenic mouse plasma; settings: Line66 transgenic model; detection scAb with S1D12 mAb capture
Protocol: Plasma samples from WT, L1, L66+/− and L66+/+ of various ages (1.5-9 months) were taken as described. Mice were terminally anaesthetized using an overdose of sodium pentobarbital and blood was collected through cardiac puncture through a Plastipak syringe pre-rinsed with heparinised saline heparin (10 U/ml) (Heparin sodium salt; Sigma-Aldrich) and transferred into a plastic vial containing lithium heparin anticoagulant (Sarstedt Ltd.) Blood samples, kept on ice for no more than 30 minutes, were centrifuged to obtain plasma at 2000×g for 5 minutes at 6° C. Plasma samples were stored at −20° C.
For mouse plasma capture ELISA, 100 μL capture mAb was coated to the bottom of a black nunc 96 well ‘maxisorp’ plate at 2.5 μg/ml and incubated for 1 hour at 37° C. After washing and blocking as normal, several known standard solutions were set up in triplicate starting at 20 ng/ml of the desired protein before double diluted in the remaining wells. Mouse samples were added to wells in duplicate with a blank in between each sample group. Line1 plasma was diluted 1:10 before addition to plate to account for its high concentration while other samples were diluted 1:2 to account for potential matrix effects. […] The ELISA was developed using SuperSignal ELISA Femto Substrate (Thermo Scientific) and total luminescence was read on Clariostar Plus plate reader (BMG Labtech). […]

[4] = molecular target: dGA (Homo sapiens, UniProt P10636); assay: Biacore X100 SPR binding kinetics of anti-tau scAbs (scAb captured via HuCk), analyte dGA; settings: lead scAbs
Chain of dGA (P10636 614-707): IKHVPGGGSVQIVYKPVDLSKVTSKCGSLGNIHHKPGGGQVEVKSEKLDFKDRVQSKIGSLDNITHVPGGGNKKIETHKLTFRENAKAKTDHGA
Protocol: (§1) Surface plasmon resonance (SPR) is widely regarded as the gold standard for real time measurement of protein-protein interactions such as antibody binding. All SPR experiments were carried out using a Biacore X100 machine and HBS EP+ running buffer (GE Healthcare). A ‘capture’ method was followed for affinity measurements, where an anti-human constant kappa chain (HuCk) antibody was conjugated to the surface of a CM5 sensor chip using an amine coupling kit and scAb molecules were immobilised via their HuCk domain. Amine coupling is a very common approach for immobilising the ligand to the chip surface. The chip surface has a dextran matrix derivatised with carboxyl groups, which after activation with N-hydroxysuccinimide (NHS) and 1-ethyl-3-(3-dimethylaminopropyl) carbodiimide (EDC), form reactive succinimide esters which allows the covalent capturing of the ligand via any available primary amine groups (e.g. Lysine) on the ligand (in this case anti-HuCk antibody). The capture antibody was diluted 1/100 in 10 mM Sodium acetate buffer pH 5.0 and passed over the activated chip surface for a period of at least 420 s. Final ligand immobilisation levels over 12,000 RU were deemed to be satisfactory.
(§2) Following immobilisation, the level of each scAb to be captured was identified using the standard SPR equation with a theoretical RMax of 100 RU. Analyte MW refers to the molecular weight of hT40 or dGA/dGAE molecules, while ligand MW refers to the molecular weight of the scAbs tested. RLis the desired capture level and S refers to the stoichiometric ratio:
(§3) The scAb to be tested was added only to flow cell 2 so that flow cell 1 could act as a control to subtract any interaction with the analyte and the chip surface. Both single and multi-cycle runs were utilised using wizards developed in the Biacore X100 control software which are both accepted methods of kinetic analysis (Karlsson, R., et al. Analyzing a kinetic titration series using affinity biosensors (2006) Analytical Biochemistry 349:136-47). The multi-cycle protocol was as follows-Three start-up cycles composed of an initial capture, to the desired level, of the scAb to be tested was performed followed by a 30 s injection of glycine buffer pH 2.0 after each cycle to regenerate the chip surface. The regeneration step removed any captured scAb whilst leaving the capture antibody intact and able to repeat the capture for the next cycle. Following three start-up cycles increasing concentrations (0.15625 nM-100 nM) of the target to be tested were added to the chip surface after the desired scAb capture. The target was added for a 120 s association period and 420 s dissociation period followed by another regeneration, 30 s injection of glycine buffer pH 2.0 in between each cycle.
The single cycle kinetics protocol was similar and utilised the same level of scAb capture. Three start-up cycles were used followed by 5 increasing concentrations of the analyte (6.25 nM-100 nM) for an association period of 120 s followed by a dissociation period of 420 s for each concentration. In single cycle kinetics the regeneration step was performed only after the final analyte concentration was added. Binding responses were analysed in Biacore X100 evaluation software and data fitted to a 1:1 binding model to obtain kinetic and affinity characterisation.

[5] = test system: hT40; assay: Binding ELISA with truncated tau proteins and 13mer peptide libraries for epitope mapping of anti-tau scAbs; design: species or system human; settings: residue numbers of hT40
Protocol: A series of binding ELISA was performed using various truncated versions of the tau protein and 13mer peptide libraries spanning the entire hT40 molecule for mapping the epitopes of anti-tau scAbs (Full list of protein antigens used is given in Table 14). In general, ELISA plates were coated with 1 μg/ml hT40 or dGA or dGAE or other truncated versions of the protein and in the case of biotinylated peptides, plates were coated with 5 μg/ml Streptavidin followed by 1 μg/ml biotinylated peptide. The plates were blocked with 2% MPBS and scAb samples added at desired starting concentrations and double diluted across the plate. Binding was detected using anti-Human C Kappa HRP conjugated secondary antibody and the resulting immunoreaction was developed and absorbance values measured as described above.
Selected E specific scAbs and their specific binding to dGAE is shown below (FIG. 8A-E).
Similarly, dGA binding ‘NS’, ‘S’ and ‘M’ group scAbs were subjected to further antigen binding ELISA using shorter tau proteins and biotinylated 13mer peptides as shown below (FIG. 10A-F) and (FIG. 11A-R).

[6] = molecular target: hT40 (Homo sapiens, UniProt P10636); assay: Biacore X100 SPR binding kinetics of anti-tau scAbs (scAb captured via HuCk), analyte hT40; settings: lead scAbs, Table 23
Chain of hT40 (Homo sapiens, UniProt P10636) (P10636 1-441 isoform P10636-8): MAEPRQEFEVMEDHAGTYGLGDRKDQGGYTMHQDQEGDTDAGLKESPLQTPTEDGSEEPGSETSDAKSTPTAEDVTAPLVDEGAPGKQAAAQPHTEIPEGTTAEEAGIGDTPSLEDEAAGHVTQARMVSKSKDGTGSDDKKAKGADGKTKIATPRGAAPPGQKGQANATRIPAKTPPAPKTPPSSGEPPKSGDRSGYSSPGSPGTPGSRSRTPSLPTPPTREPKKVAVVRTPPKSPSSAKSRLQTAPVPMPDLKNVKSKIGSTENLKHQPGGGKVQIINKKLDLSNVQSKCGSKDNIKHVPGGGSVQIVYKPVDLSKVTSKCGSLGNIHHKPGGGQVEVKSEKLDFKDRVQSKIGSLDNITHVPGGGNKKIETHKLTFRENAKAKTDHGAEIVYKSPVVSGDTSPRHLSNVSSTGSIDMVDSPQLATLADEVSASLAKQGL
Protocol: as §1, with “The chip surface has a dextran matrix derivatised with carboxyl groups, which after activation with N-hydroxysuccinimide (NHS) and 1-ethyl-3-(3-dimethylaminopropyl) carbodiimide (EDC), form reactive succinimide esters which allows the covalent capturing of the ligand via any available primary amine groups (e.g. Lysine) on the ligand (in this case anti-HuCk antibody).” left out
Following immobilisation, the level of each scAb to be captured was identified using the standard SPR equation with a theoretical RMax of 100 RU. Analyte MW refers to the molecular weight of hT40 or dGA/dGAE molecules, while ligand MW refers to the molecular weight of the scAbs tested. […]
(§4) The single cycle kinetics protocol was similar and utilised the same level of scAb capture. […] Binding responses were analysed in Biacore X100 evaluation software and data fitted to a 1:1 binding model to obtain kinetic and affinity characterisation.

[7] = molecular target: dGAE (Homo sapiens, UniProt P10636); assay: Biacore X100 SPR binding kinetics of anti-tau scAbs (scAb captured via HuCk), analyte dGAE; settings: lead scAbs
Chain of dGAE (P10636 614-708): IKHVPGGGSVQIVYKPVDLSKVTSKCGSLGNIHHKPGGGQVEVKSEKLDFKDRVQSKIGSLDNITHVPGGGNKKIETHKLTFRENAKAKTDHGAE
Protocol: as §1, §2
as §3, with “Following three start-up cycles increasing concentrations (0.15625 nM-100 nM) of the target to be tested were added to the chip surface after the desired scAb capture. The target was added for a 120 s association period and 420 s dissociation period followed by another regeneration, 30 s injection of glycine buffer pH 2.0 in between each cycle.” left out
as §4

B1: CB7: anti-tau clone, SEQ ID NO: 364 (protein)
scFv: QVQLQESGPSLVKPSQTLSLTCTVSGFSLTNYRVGWVRQAPGKALEWVSNIRSGGTTWYNPALKSRLSITADTSKSQVSLSLSSVTTEDTAVYYCARDSSGDLYAYDYWGPGLLVTVSSEGKSSGASGESKVDDQAVLTQPSSVSRSLGQSVSMTCSGSSSNVGYGNYMAWFQQVPGSAPKLLIYGATSRASGVPDRFSGSRSGNTATLTISSLQAEDEADYYCASYDSTSGGVFGSGTRLTVLG
modifications: CB7 amino acid sequence
detection of tau in mouse brain homogenate ([1]; listed as C-B7 scAb): hT40 tau was specifically detected in L66 samples | detection of tau in mouse brain homogenate ([1]; listed as CB7 scAb): can specifically detect human tau in Line66 homozygous and heterozygous samples | Western blot reactivity [2]: specificity for human tau | cross-reaction with endogenous mouse tau protein [3]: does not cross react with endogenous mouse tau protein

B2: CE2: anti-tau clone referred to as CE2 or E1B8, SEQ ID NO: 366 (protein)
scFv: QVQLQESGPSLVKPSQTLSLTCTVSGFSLTNYPVGWVRQAPGKALEWIGNIENDGSANYASALKSRLSITRDTSKNQVSLSLSSATTEDTAVYYCGREFGGSDGYTYFVDIDYWGPGLLVTVSSEGKSSGASGESKVDDQAVLTQPSSVSKSLGQSVSITCSGSSSNVGYGNYVSWFQQVPGSAPKILIYGATSRASGVPDRFSGSRSGNTATLTITSLQAEDEADYYCASYDGSSSGVFGSGTRLTVLG
modifications: CE2/E1B8 amino acid sequence
ka ([4]; Table 24): 137000 M⁻¹ s⁻¹ | dissociation rate constant (kd) ([4]; Table 24, dissociation rate): 0.00242 s⁻¹ | Tau proteins/fragments with positive scAb reactivity [5]: 297-390 (dGA), 297-391 and (dGAE), 313-336

B3: E2E8: anti-tau clone, SEQ ID NO: 248 (protein)
scFv: QVQLQESGPSLVKPSQTLSLTCTVSGFSLTDRGVAWVRQAPGKALEWVGTMRSGGTIDYNPALKSRLSITRDTSKSQVFLSLSSVTTEDMAMYYCARGYLSGDRYAWGRGLLVTVSSEGKSSGASGESKVDDQAVLTQPSSVSKSLGQSVSIACSGSRSDIGYGNYVSWFQQIPGSAPKLLIYDTNTRASGVPDRFSGARSGNTATLTINSLQAEDEADYYCANIDSSRSHLFGSGTRLTVLG
modifications: E2E8 amino acid sequence
T441 binding (result in words) [6]: No T441 binding | ka ([7]; Table 24): 477000 M⁻¹ s⁻¹ | dissociation rate constant (koff) ([7]; Table 24, dissociation rate): 0.0001915 s⁻¹
